According to paper PMC8643683, “Loss of full-length hnRNP R isoform impairs DNA damage response in motoneurons by inhibiting Yb1 recruitment to chromatin” (Nucleic Acids Research, 2021):

Target: T1, Y-box binding protein 1 (Yb1), endogenous mouse (mouse (endogenous in primary mouse …, UniProt P62960 1-322))
T1 construct: also called Msy1; source: endogenous, primary mouse motoneuron lysate; endogenous, NSC-34 lysate
Assay: co-IP; Yb1 (sc-101198) or γ-H2AX (clone JBW301) immunoprecipitated on protein A or G Dynabeads from whole lysates of NSC-34 cells, 0 Gy or 9 Gy; IP lysis buffer (50 mM Tris-HCl pH 7.4, 140 mM NaCl, 1% Triton X-100) with 1 U Benzonase, overnight at 4°C; western blot
Details: partners not purified

T1 sequence (P62960 whole entry): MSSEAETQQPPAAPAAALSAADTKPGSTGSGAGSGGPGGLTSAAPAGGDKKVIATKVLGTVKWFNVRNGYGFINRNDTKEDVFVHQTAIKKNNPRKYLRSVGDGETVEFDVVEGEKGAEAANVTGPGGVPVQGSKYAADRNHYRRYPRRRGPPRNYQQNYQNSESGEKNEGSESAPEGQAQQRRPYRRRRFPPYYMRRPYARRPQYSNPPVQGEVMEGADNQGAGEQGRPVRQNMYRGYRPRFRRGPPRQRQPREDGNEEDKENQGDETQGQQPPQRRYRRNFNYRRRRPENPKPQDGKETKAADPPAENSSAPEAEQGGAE

B1: hnRNP R-FL (full-length hnRNP R isoform), endogenous (natural protein, mouse (endogenous in NSC-34), UniProt Q8VHM5 1-632, looked up)
chain: MANQVNGNAVQLKEEEEPMDTSSVTHTEHYKTLIEAGLPQKVAERLDEIFQTGLVAYVDLDERAIDALREFNEEGALSVLQQFKESDLSHVQNKSAFLCGVMKTYRQREKQGSKVQESTKGPDEAKIKALLERTGYTLDVTTGQRKYGGPPPDSVYSGVQPGIGTEVFVGKIPRDLYEDELVPLFEKAGPIWDLRLMMDPLSGQNRGYAFITFCGKEAAQEAVKLCDSYEIRPGKHLGVCISVANNRLFVGSIPKNKTKENILEEFSKVTEGLVDVILYHQPDDKKKNRGFCFLEYEDHKSAAQARRRLMSGKVKVWGNVVTVEWADPVEEPDPEVMAKVKVLFVRNLATTVTEEILEKSFSEFGKLERVKKLKDYAFVHFEDRGAAVKAMDEMNGKEIEGEEIEIVLAKPPDKKRKERQAARQASRSTAYEDYYYHPPPRMPPPMRGRGRGGRGGYGYPPDYYGYEDYYDDYYGYDYHDYRGGYEDPYYGYDDGYAVRGRGGGRGGRGAPPPPRGRGAPPPRGRAGYSQRGAPLGPPRGSRGGRGGPAQQQRGRGSRGARGNRGGNVGGKRKADGYNQPDSKRRQTNNQQNWGSQPIAQQPLQQGGDYSGNYGYNNDNQEFYQDTYGQQWK
notes: hnRNP R, mouse, full-length 632-amino acid protein encoded by transcript variant 1, translated from the AUG in exon 2; source: endogenous, NSC-34 lysate
  fold preference of co-precipitation with Yb1 over hnRNP R-ΔN: 1.7 fold
